Reference: patent US20220313840A1 (ACADEMIA SINICA, published 2022)

Key:
[1] = molecular target: T1, endogenous EGFR on human carcinoma cell lines (human, UniProt P00533 25-1210); assay: cell ELISA on human carcinoma cell lines with endogenous EGFR
T1 construct: whole, on cells; EGFR expression of the cell lines was checked by Western blotting; also called endogenous cellular EGFR; EGFR on FaDu and Ca9-22 cells

[2] = molecular target: T1, endogenous EGFR on human carcinoma cell …; assay: cell uptake, including EGFR-knockdown cells
Experimental: To evaluate whether internalization and targeting were preserved after EGFR-s10 ligation to liposomes, we tested EGFR-s10-conjugated liposomal SRB in the SCCHN cell lines FaDu and Ca9-22 cells at 37° C. for 30 min (FIGS. 3C-D). No compromise of internalization capacity was discernable in either cell line compared to the previous soluble EGFR-s10.

[3] = molecular target: T1, endogenous EGFR on human carcinoma cell …; assay: confocal microscopy of FaDu and Ca9-22 cells, anti-FLAG detection
Experimental: We produced soluble scFv from EGFR-PC10 and designated it as EGFR-s10. Target binding and internalization are essential requirements of LTL-targeting moieties. We investigated these features of EGFR-s10 in SCCHN cancer cell lines. FaDu cells and Ca9-22 cells were separately incubated with EGFR-sl0 at 4° C. or 37° C. for 30 min and compared with isotypic IgG controls. EGFR-sl0 bound to the cell membrane of FaDu and Ca9-22 cells at 4° C. […] (FIGS. 3A-B).

B1: EGFR-PC10 phage clone (phage-displayed human anti-EGFR scFv) (scFv)
scFv: EVQLVESGGGLVQPGGSLRLSCAASGFNLSSFWMSWVRQAPGKGLEWVANINHDGSDKYYVDSVKGRFSISRDNTKNSVYLQMDSLRGEDTAVYYCAKGKSLYDGSALDMWGQGTMVTVSSGGGGSGGGGSGGGGSDIVMTQSPSTLSASVGDRVTITCRASQTIGRWLAWYQQKPGKAPKLLIYGASSLQSGVPSRFSGSGSGTDFTLTISSLQPEDFATYYCQQSYSTLWTFGQGTKLEIKR
notes: Tested as whole phage particles displaying the scFv, detected with anti-M13 antibody; also called EFGR-PC10 phage; not shown: phage coat protein fusion of the M13 display system; not described
binding result [1]: binds

B2: EGFR-s10-conjugated ligand-targeting liposomes (LTLs) (other)
scFv: B1 scFv
modifications: reduced cysteine of the tag conjugated to Maleimide-PEG-DSPE inserted in a PEGylated liposome loaded with doxorubicin or vinorelbine
notes: also called EGFR-s10-LD; EGFR-s10-LV; not shown: flag, 6xHis and cysteine tag from the pFHC vector
binding result [2]: binds

B3: EGFR-s10 scFv (soluble scFv generated from phage clone EGFR-PC10) (scFv)
scFv: B1 scFv
notes: Expressed in E. coli HB2151 from the pFHC vector; also called EGFR-sl0; soluble anti-EGFR human scFv; not shown: flag, 6xHis and cysteine tag from the pFHC vector
binding result [3]: binds
